Columns and labels:
[1] = molecular target: PacII S subunit (HsdS), full length, C-terminal 6His tag (assembly analysis) (Pseudomonas alcaligenes NEB585); assay: SEC; only two subunits co-expressed in E. coli (M1 with S, or M2 with S), purified by the same strategy as the wild-type PacII MTase; SEC
[2] = molecular target: PacII S subunit (HsdS), full length, C-terminal 6His tag (assembly analysis) (Pseudomonas alcaligenes NEB585); assay: SEC; S subunit alone on size-exclusion chromatography; monomer-dimer equilibrium

Substance	stoichiometry N [1]	stoichiometry N [2]
PacII M1 subunit (HsdM1), full length, construct without the 6His-SUMO tag (assembly analysis) (natural protein)	1 M1 per S	–
PacII S subunit (HsdS), full length, C-terminal 6His tag (assembly analysis) (natural protein)	–	2

Reference: paper PMC9613975
